Four molecules from patent WO2007023782A1 (dated 2007) can be followed below.

Test [1] has as its target T1, nmAb-KT (neutralizing monoclonal antibody against HM-1 killer toxin).
T1 construct: also called nmb-KT; HM-1 neutralizing monoclonal antibody
The test can be described thus: SPR (BIAcore X), nmAb-KT immobilised, differs in the last digit from Table 2.

Test [2] has as its target T1, nmAb-KT (neutralizing monoclonal …). In words: SPR (BIAcore X), nmAb-KT immobilised on CM5 chip; Ka = kon/koff.
Test [3] shares this target. In words: SPR (BIAcore X), nmAb-KT immobilised on CM5 chip, ScFv 15.75-250 nM as analyte, 25 C, HBS-EP.
For test [4], the target named is T2, BSA (Bovine serum albumine) (bovine, UniProt P02769 25-607).
T2 construct: Negative control; also called negative control
In words: SPR (BIAcore X), BSA negative control.

Test [5] deals with T1, nmAb-KT (neutralizing monoclonal …). The test can be described thus: SPR (BIAcore X), nmAb-KT immobilised; ratio of Ka values.
The target is the same in test [6]. The test can be described thus: SPR (BIAcore X), nmAb-KT immobilised, rounded against Table 2.

T2 sequence (P02769 25-607 limits assumed): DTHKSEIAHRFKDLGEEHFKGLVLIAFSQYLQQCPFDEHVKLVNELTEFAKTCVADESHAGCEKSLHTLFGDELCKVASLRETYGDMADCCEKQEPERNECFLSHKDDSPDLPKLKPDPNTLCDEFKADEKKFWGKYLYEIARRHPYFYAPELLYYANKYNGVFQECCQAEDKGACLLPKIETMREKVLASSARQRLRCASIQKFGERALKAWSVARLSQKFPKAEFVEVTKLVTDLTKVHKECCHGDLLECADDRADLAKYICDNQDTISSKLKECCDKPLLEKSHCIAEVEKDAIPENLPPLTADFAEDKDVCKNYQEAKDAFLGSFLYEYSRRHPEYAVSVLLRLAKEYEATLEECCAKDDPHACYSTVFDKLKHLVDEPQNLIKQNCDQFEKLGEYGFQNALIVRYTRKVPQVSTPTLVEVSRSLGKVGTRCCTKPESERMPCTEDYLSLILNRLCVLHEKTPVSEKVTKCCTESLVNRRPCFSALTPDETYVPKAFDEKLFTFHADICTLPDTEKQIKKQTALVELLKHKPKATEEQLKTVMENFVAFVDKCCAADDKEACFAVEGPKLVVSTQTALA

B1: ScFv-A2 (scFv, V domains shown)
VH: QVKLQQSGAELMKPGASVKISCKATGYTFSSYWIEWVKQRPGHGLEWIGEILPGSGSTNYNEKFKGKATFTADTSSNTAYMQLSSLTSEDSAVYYCARYYGNYYAMDYWGQGTTVTVSS
notes: Mouse anti-idiotypic single chain Fv, VH-(Gly4Ser)3 linker-VL, with a C-terminal E-Tag; also called ScFv KTIdAb; anti-idiotypic ScFv
In test [1], B1 gave a Ka of 6.65e+07 M⁻¹. The Ka in test [2] came to 6.66e+07 M⁻¹. In test [3], this molecule came in with a koff of 0.00458 s⁻¹ and a kon of 305000 M⁻¹ s⁻¹. Besides, in test [4], the binding result is listed as “no binding (tested: 15.75 nM-250 nM ScFv)”. Besides, in test [5], the “fold of affinity constant Ka against ScFv-A1 or ScFv-A4” value is about 1.2 fold and the “fold of affinity constant Ka against ScFv-A3” value was about 2 fold.

B2: ScFv-A4 (scFv)
scFv: MAQVKLQQSGAELMKPGASVKISCKATGYTFSSYWIEWVKQRPGHGLEWIGEILPGSGSTNYNEKFKGKATFTADTSSNTAYMQLSSLTSEDSAVYYCARYYGNYYAMDYWGQGTTVTVSSGGGGSGGGGSGGGGSDIVLTQSPAIMSASPGEKSPSPAVSAQVYVPATCTGTSRSQKPPPNPGFMAHPTWLLESQVASVAVGLENSYSLTISSMEAEDVATYYCFQGSGYPLTFGSGTKLEIKRAAAGAPVPYPDPLEPR
notes: as for B1
The molecule B2 displayed a Ka in test [2] of 4.48e+07 M⁻¹. In test [3], the koff was 0.005 s⁻¹ and the on-rate (kon) was 224000 M⁻¹ s⁻¹. Moreover, in test [4], the binding result is recorded as “no binding (tested: 15.75 nM-250 nM ScFv)”.

B3: ScFv-A1 (scFv)
scFv: MAQVKLQQSGAELMKPGASVKISCKATGYTFSSYWIEWVKQRPGHGLEWIGEILPGSGSTNYNEKFKGKATFTADTSSNTAYMQLSSLTSEDSAVYYCARYYGNYYAMDYWGQGTTVTVSSGGGGSGGGGSGGGGSDIVLTQSPAIMSASPGEKVTITCSVSSSISSSNLHWYQQKSETSPKPWIYGTSNLASGVPGRFSGSGSGNSYSLTISSMEAEDVATYYCFQGSGYPLTFGSGTKLEIKRAAAGAPVPYPDPLEPR
notes: also called ScFv-Al; ScFv KTIdAb
In the case of B3, the Ka in test [6] is 4.8e+07 M⁻¹. Also, in test [2], the Ka worked out at 4.79e+07 M⁻¹. In addition, in test [3], the koff was 0.00507 s⁻¹ and the kon was found to be 243000 M⁻¹ s⁻¹. Besides, the binding result in test [4] is given as “no binding (tested: 15.75 nM-250 nM ScFv)”.

B4: ScFv-A3 (scFv)
scFv: MAQVKLQQSGAELMKPGASVKISCKATGYTFSSYWIEWVKQRPGHGLEWIGEILPGSGSTNYNEKFKGKATFTADTSSNTAYMQLSSLTSEDSAVYYCARYYGNYYAMDYWGQGTTVTVSSGGGGSGGGGSGGGGSDIVLTQSPAIMSASPGEKVTITCSVSSSRSSSNLHWYQQKSETSPKPWIYGTSNLASGVPGRFSGSGSGKLLLSHDQQHEAEDVATYYCFQGSGYPLTFGSGTKLEIKRAAAGAPVPYPDPLEPR
notes: as for B1
In turn, B4 had a Ka in test [1] of 3.04e+07 M⁻¹. In addition, the Ka in test [2] was determined as 3.05e+07 M⁻¹. In test [3], this molecule came in with a koff of 0.00751 s⁻¹ and a kon of 229000 M⁻¹ s⁻¹. For the same molecule, the binding result in test [4] is given as “no binding (tested: 15.75 nM-250 nM ScFv)”.
